This passage reports stoichiometry N results from article PMC7241686.

In this test the target is HA trimer from A/New Caledonia/20/1999 (H1N1), soluble trimerized HA ectodomain (Influenza A virus A/New Caledonia/20/1999 (H1N1)). In words: SEC. In general terms: Size exclusion chromatography separates by hydrodynamic size, large species first.

As usually defined, the stoichiometry N is a count of units in the complex or per binding partner. Consider “HA trimer from A/New Caledonia/20/1999 (H1N1), soluble trimerized HA ectodomain (domain or fragment)”, for which the stoichiometry N worked out at 3.
